{"source": "patent US20260240959A1", "about": "“METHODS FOR IN VIVO EDITING OF KLKB1” (INTELLIA THERAPEUTICS, INC., priority 2022, published 2026)", "key": {"[1]": {"tested_on": "plasma kallikrein", "assay": "Plasma kallikrein activity in cynomolgus monkeys", "format": "in vivo, cynomolgus monkey", "settings": "n=3, 6 mpk", "protocol": "(§1) Cynomolgus monkeys were treated in cohorts of n=3. This study was conducted with LNP formulations according to Example 1. […]. Animals were dosed at 1.5, 3, or 6 mg per kg doses based on total RNA cargo. Indel formation (percent editing) was measured by NGS. Total kallikrein activity and plasma kallikrein protein level were measured as described above. […]"}, "[2]": {"tested_on": "plasma kallikrein protein", "assay": "Plasma kallikrein protein level in cynomolgus monkeys", "format": "in vivo, cynomolgus monkey", "settings": "n=3", "protocol": "as §1"}}, "note": "In the oligonucleotide strings, read from the 5' end, every base follows the letter of its sugar. An asterisk marks phosphorothioate; unmarked linkages are phosphodiester. Other units and linkages are bracketed, terminal groups are in braces. A string of capitals states the bases alone. m = 2'-O-methyl; r = 2'-OH (RNA)", "data": [{"molecule": "G013901: cynomolgus specific KLKB1 guide RNA (SEQ ID NO: 409); dosed as LNP formulation with Cas9 mRNA (nucleic acid) guide: mG*mG*mA*rUrUrArCrArUrArUrGrGrGrArCrArCrArArGrUrUrUrUrArGrAmGmCmUmAmGmAmAmAmUmAmGmCrArArGrUrUrArArArArUrArArGrGrCrUrArGrUrCrCrGrUrUrArUrCrAmAmCmUmUmGmAmAmAmAmAmGmUmGmGmCmAmCmCmGmAmGmUmCmGmGmUmGmCmU*mU*mU*mU", "values": [{"measurement": "Kallikrein Activity (% of basal activity), Mean", "setting": "[1]; Day 347", "result": "2.9 % of basal activity"}, {"measurement": "Kallikrein Activity (% of basal activity), Mean", "setting": "[1]; Day 365", "result": "3.4 % of basal activity"}, {"measurement": "Plasma Kallikrein Protein Levels (% of basal level), Mean", "setting": "[2]; 1.5 mpk, Day 14", "result": "28.8 % of basal level"}, {"measurement": "Plasma Kallikrein Protein Levels (% of basal level), Mean", "setting": "[2]; 1.5 mpk, Day 28", "result": "32.7 % of basal level"}, {"measurement": "Plasma Kallikrein Protein Levels (% of basal level), Mean", "setting": "[2]; 1.5 mpk, Day 42", "result": "31.5 % of basal level"}, {"measurement": "Plasma Kallikrein Protein Levels (% of basal level), Mean", "setting": "[2]; 1.5 mpk, Day 56", "result": "30.1 % of basal level"}, {"measurement": "Plasma Kallikrein Protein Levels (% of basal level), Mean", "setting": "[2]; 1.5 mpk, Day 70", "result": "29.8 % of basal level"}, {"measurement": "Plasma Kallikrein Protein Levels (% of basal level), Mean", "setting": "[2]; 1.5 mpk, Day 84", "result": "38.7 % of basal level"}, {"measurement": "Plasma Kallikrein Protein Levels (% of basal level), Mean", "setting": "[2]; 1.5 mpk, Day 105", "result": "47 % of basal level"}, {"measurement": "Plasma Kallikrein Protein Levels (% of basal level), Mean", "setting": "[2]; 1.5 mpk, Day 119", "result": "31.6 % of basal level"}, {"measurement": "Plasma Kallikrein Protein Levels (% of basal level), Mean", "setting": "[2]; 1.5 mpk, Day 147", "result": "32.1 % of basal level"}, {"measurement": "Plasma Kallikrein Protein Levels (% of basal level), Mean", "setting": "[2]; 1.5 mpk, Day 161", "result": "35.8 % of basal level"}, {"measurement": "Plasma Kallikrein Protein Levels (% of basal level), Mean", "setting": "[2]; 1.5 mpk, Day 180", "result": "33.8 % of basal level"}, {"measurement": "Plasma Kallikrein Protein Levels (% of basal level), Mean", "setting": "[2]; 1.5 mpk, Day 238", "result": "27.4 % of basal level"}, {"measurement": "Plasma Kallikrein Protein Levels (% of basal level), Mean", "setting": "[2]; 1.5 mpk, Day 252", "result": "27.9 % of basal level"}, {"measurement": "Plasma Kallikrein Protein Levels (% of basal level), Mean", "setting": "[2]; 1.5 mpk, Day 266", "result": "28.7 % of basal level"}, {"measurement": "Plasma Kallikrein Protein Levels (% of basal level), Mean", "setting": "[2]; 1.5 mpk, Day 280", "result": "33.7 % of basal level"}, {"measurement": "Plasma Kallikrein Protein Levels (% of basal level), Mean", "setting": "[2]; 1.5 mpk, Day 294", "result": "30.4 % of basal level"}, {"measurement": "Plasma Kallikrein Protein Levels (% of basal level), Mean", "setting": "[2]; 1.5 mpk, Day 308", "result": "20.6 % of basal level"}, {"measurement": "Plasma Kallikrein Protein Levels (% of basal level), Mean", "setting": "[2]; 1.5 mpk, Day 326", "result": "29.7 % of basal level"}, {"measurement": "Plasma Kallikrein Protein Levels (% of basal level), Mean", "setting": "[2]; 1.5 mpk, Day 333", "result": "30.9 % of basal level"}, {"measurement": "Plasma Kallikrein Protein Levels (% of basal level), Mean", "setting": "[2]; 1.5 mpk, Day 347", "result": "26 % of basal level"}, {"measurement": "Plasma Kallikrein Protein Levels (% of basal level), Mean", "setting": "[2]; 1.5 mpk, Day 365", "result": "22.7 % of basal level"}, {"measurement": "Plasma Kallikrein Protein Levels (% of basal level), Mean", "setting": "[2]; 3 mpk, Day 14", "result": "27.1 % of basal level"}, {"measurement": "Plasma Kallikrein Protein Levels (% of basal level), Mean", "setting": "[2]; 3 mpk, Day 28", "result": "16.9 % of basal level"}, {"measurement": "Plasma Kallikrein Protein Levels (% of basal level), Mean", "setting": "[2]; 3 mpk, Day 42", "result": "16 % of basal level"}, {"measurement": "Plasma Kallikrein Protein Levels (% of basal level), Mean", "setting": "[2]; 3 mpk, Day 56", "result": "15.4 % of basal level"}, {"measurement": "Plasma Kallikrein Protein Levels (% of basal level), Mean", "setting": "[2]; 3 mpk, Day 70", "result": "15.4 % of basal level"}, {"measurement": "Plasma Kallikrein Protein Levels (% of basal level), Mean", "setting": "[2]; 3 mpk, Day 84", "result": "17.1 % of basal level"}, {"measurement": "Plasma Kallikrein Protein Levels (% of basal level), Mean", "setting": "[2]; 3 mpk, Day 105", "result": "22.3 % of basal level"}, {"measurement": "Plasma Kallikrein Protein Levels (% of basal level), Mean", "setting": "[2]; 3 mpk, Day 119", "result": "18.1 % of basal level"}, {"measurement": "Plasma Kallikrein Protein Levels (% of basal level), Mean", "setting": "[2]; 3 mpk, Day 147", "result": "18.3 % of basal level"}, {"measurement": "Plasma Kallikrein Protein Levels (% of basal level), Mean", "setting": "[2]; 3 mpk, Day 161", "result": "7.5 % of basal level"}, {"measurement": "Plasma Kallikrein Protein Levels (% of basal level), Mean", "setting": "[2]; 3 mpk, Day 180", "result": "18 % of basal level"}, {"measurement": "Plasma Kallikrein Protein Levels (% of basal level), Mean", "setting": "[2]; 3 mpk, Day 238", "result": "16.4 % of basal level"}, {"measurement": "Plasma Kallikrein Protein Levels (% of basal level), Mean", "setting": "[2]; 3 mpk, Day 252", "result": "15.6 % of basal level"}, {"measurement": "Plasma Kallikrein Protein Levels (% of basal level), Mean", "setting": "[2]; 3 mpk, Day 266", "result": "21.8 % of basal level"}, {"measurement": "Plasma Kallikrein Protein Levels (% of basal level), Mean", "setting": "[2]; 3 mpk, Day 280", "result": "24.6 % of basal level"}, {"measurement": "Plasma Kallikrein Protein Levels (% of basal level), Mean", "setting": "[2]; 3 mpk, Day 294", "result": "24.6 % of basal level"}, {"measurement": "Plasma Kallikrein Protein Levels (% of basal level), Mean", "setting": "[2]; 3 mpk, Day 308", "result": "27.6 % of basal level"}, {"measurement": "Plasma Kallikrein Protein Levels (% of basal level), Mean", "setting": "[2]; 3 mpk, Day 326", "result": "23.8 % of basal level"}, {"measurement": "Plasma Kallikrein Protein Levels (% of basal level), Mean", "setting": "[2]; 3 mpk, Day 333", "result": "25.3 % of basal level"}, {"measurement": "Plasma Kallikrein Protein Levels (% of basal level), Mean", "setting": "[2]; 3 mpk, Day 347", "result": "22.1 % of basal level"}, {"measurement": "Plasma Kallikrein Protein Levels (% of basal level), Mean", "setting": "[2]; 3 mpk, Day 365", "result": "11.4 % of basal level"}, {"measurement": "Plasma Kallikrein Protein Levels (% of basal level), Mean", "setting": "[2]; 6 mpk, Day 14", "result": "13.7 % of basal level"}, {"measurement": "Plasma Kallikrein Protein Levels (% of basal level), Mean", "setting": "[2]; 6 mpk, Day 28", "result": "6.6 % of basal level"}, {"measurement": "Plasma Kallikrein Protein Levels (% of basal level), Mean", "setting": "[2]; 6 mpk, Day 42", "result": "6.3 % of basal level"}, {"measurement": "Plasma Kallikrein Protein Levels (% of basal level), Mean", "setting": "[2]; 6 mpk, Day 56", "result": "5.8 % of basal level"}, {"measurement": "Plasma Kallikrein Protein Levels (% of basal level), Mean", "setting": "[2]; 6 mpk, Day 70", "result": "5.8 % of basal level"}, {"measurement": "Plasma Kallikrein Protein Levels (% of basal level), Mean", "setting": "[2]; 6 mpk, Day 84", "result": "6.7 % of basal level"}, {"measurement": "Plasma Kallikrein Protein Levels (% of basal level), Mean", "setting": "[2]; 6 mpk, Day 105", "result": "7.6 % of basal level"}, {"measurement": "Plasma Kallikrein Protein Levels (% of basal level), Mean", "setting": "[2]; 6 mpk, Day 119", "result": "6.4 % of basal level"}, {"measurement": "Plasma Kallikrein Protein Levels (% of basal level), Mean", "setting": "[2]; 6 mpk, Day 147", "result": "6.7 % of basal level"}, {"measurement": "Plasma Kallikrein Protein Levels (% of basal level), Mean", "setting": "[2]; 6 mpk, Day 161", "result": "7.4 % of basal level"}, {"measurement": "Plasma Kallikrein Protein Levels (% of basal level), Mean", "setting": "[2]; 6 mpk, Day 180", "result": "2.9 % of basal level"}, {"measurement": "Plasma Kallikrein Protein Levels (% of basal level), Mean", "setting": "[2]; 6 mpk, Day 238", "result": "3.7 % of basal level"}, {"measurement": "Plasma Kallikrein Protein Levels (% of basal level), Mean", "setting": "[2]; 6 mpk, Day 252", "result": "3.9 % of basal level"}, {"measurement": "Plasma Kallikrein Protein Levels (% of basal level), Mean", "setting": "[2]; 6 mpk, Day 266", "result": "3.7 % of basal level"}, {"measurement": "Plasma Kallikrein Protein Levels (% of basal level), Mean", "setting": "[2]; 6 mpk, Day 280", "result": "6.3 % of basal level"}, {"measurement": "Plasma Kallikrein Protein Levels (% of basal level), Mean", "setting": "[2]; 6 mpk, Day 294", "result": "7.4 % of basal level"}, {"measurement": "Plasma Kallikrein Protein Levels (% of basal level), Mean", "setting": "[2]; 6 mpk, Day 308", "result": "6.2 % of basal level"}, {"measurement": "Plasma Kallikrein Protein Levels (% of basal level), Mean", "setting": "[2]; 6 mpk, Day 326", "result": "8 % of basal level"}, {"measurement": "Plasma Kallikrein Protein Levels (% of basal level), Mean", "setting": "[2]; 6 mpk, Day 333", "result": "7.8 % of basal level"}, {"measurement": "Plasma Kallikrein Protein Levels (% of basal level), Mean", "setting": "[2]; 6 mpk, Day 347", "result": "7.3 % of basal level"}, {"measurement": "Plasma Kallikrein Protein Levels (% of basal level), Mean", "setting": "[2]; 6 mpk, Day 365", "result": "4.3 % of basal level"}]}]}
